The target of assay [1] is truncated HIV-1 gp120MS (residues 83-492, intact variable loops) (HIV-1 (clade A isolate)). The assay is described as follows: SEC.
Assay [2] addresses single-chain fusion protein of CD4i scFv m9 with gp120SC (HIV-1 (clade B isolate)). The assay is described as follows: SPR.
Assay [3] addresses truncated HIV-1 gp120SC (residues 83-492, intact variable loops) (HIV-1 (clade B isolate)). Description: SPR. (In SPR one partner is held on a chip, and binding of the other changes the refractive index at the surface.)
The target in assay [4] is single-chain fusion protein of CD4i antibody domain m36.4 with gp120SC (human | HIV-1 (clade B isolate)). The assay is described as follows: SPR.
The target in assay [5] is single-chain fusion protein of CD4i antibody domain m36.4 with gp140SC (human | HIV-1 (clade B isolate)). The assay is described as follows: SPR.
For assay [6], the target named is single-chain fusion protein of CD4i antibody domain m36.4 with gp120MS (human | HIV-1 (clade A isolate)). The assay is described as follows: SPR.
Assay [7] has as its target stabilized gp120SC with T257S+S375W mutations (HIV-1 (clade B isolate)). The assay is described as follows: SPR.
Assay [8] deals with truncated HIV-1 gp120MS (residues 83-492, intact variable loops) (HIV-1 (clade A isolate)). Description: SPR.
Assay [9] has as its target truncated HIV-1 gp120SC (residues 83-492, intact variable loops) (HIV-1 (clade B isolate)). Description: SEC.

In turn, “truncated HIV-1 gp120MS (residues 83-492, intact variable loops) (domain or fragment)” gave a stoichiometry N in [1] of 2.
On to “two-domain human soluble CD4 (domain or fragment)”, for which the equilibrium dissociation constant (Kd) in assay [2] turned out to be 1.8 nM; in assay [3], 104 nM; in assay [4], 0.73 nM; in [5] it was 1.9 nM; in assay [6], 0.15 nM; in [7], 59 nM. Further, in [8], the dissociation constant Kd was 0.21 nM.
“truncated HIV-1 gp120SC (residues 83-492, intact variable loops) (domain or fragment)” had a stoichiometry N in [9] of 2.

What is called stoichiometry N is the number of molecules, sites or subunits per partner or assembly. By Kd is commonly meant the free concentration of one partner at which half of the binding sites on the other are occupied at equilibrium, for simple one-to-one binding. A higher Kd goes with lower affinity.

For the origin of these results see publication PMC3444823.
